{"source": "paper PMC7494283", "target": "SARS-CoV-2 prefusion-stabilized S ectodomain trimer (SARS-CoV-2 | not stated) (UniProt P0DTC2)"}
{"substance": "S2X35 mAb (IgG1) (antibody)", "values": [{"measurement": "SARS-CoV-2 pseudovirus neutralization IC50; hinders ACE2 binding", "result": 0.5, "unit": "µg/mL"}]}
